# Source: article PMC13399123
# Key:
# [1] = molecular target: GST-SH3 (SH3 domain of cortactin fused to GST) (UniProt Q14247); experiment: GST pull-down from cell lysates, anti-HS1BP3 immunoblot, quantified; details: lysates of MKN-74 HS1BP3 KO cells rescued with EGFP-HS1BP3 WT or PRR3.1 mutant; n = 2; parent: est. 8.5; read off a plot; scale: % of GST-SH3 interaction
# [2] = molecular target: cortactin (CTTN), endogenous in MKN-74 cells (UniProt Q14247); experiment: GFP-trap pull-down from cell lysates, anti-cortactin immunoblot, quantified; details: MKN-74 HS1BP3 KO cells expressing EGFP-HS1BP3 WT or PRR3.1 mutant; n = 4; parent: est. 1.0; read off a plot
# [3] = molecular target: GST-SH3 (SH3 domain of cortactin fused to GST) (UniProt Q14247); experiment: GST pull-down with recombinant proteins, anti-MBP immunoblot, quantified; details: 10% of the input MBP protein loaded; n = 2; parent: est. 1.0; read off a plot
# GST-SH3 (SH3 domain of cortactin fused to GST), sequence (Q14247 492-550): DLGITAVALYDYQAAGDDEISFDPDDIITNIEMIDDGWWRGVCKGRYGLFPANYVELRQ
# EGFP-HS1BP3 WT, sequence (Q53T59 whole entry, change not shown): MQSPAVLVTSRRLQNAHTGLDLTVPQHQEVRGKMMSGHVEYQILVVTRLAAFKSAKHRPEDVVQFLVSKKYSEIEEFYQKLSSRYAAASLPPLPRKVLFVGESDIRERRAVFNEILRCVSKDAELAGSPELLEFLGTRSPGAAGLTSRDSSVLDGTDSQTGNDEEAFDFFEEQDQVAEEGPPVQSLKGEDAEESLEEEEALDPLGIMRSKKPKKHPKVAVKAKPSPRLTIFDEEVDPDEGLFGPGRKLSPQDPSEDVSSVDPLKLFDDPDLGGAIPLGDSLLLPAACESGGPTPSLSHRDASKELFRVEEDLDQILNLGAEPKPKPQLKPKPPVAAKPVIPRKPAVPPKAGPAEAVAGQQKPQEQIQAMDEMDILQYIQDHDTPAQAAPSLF
# cortactin (CTTN), endogenous in MKN-74 cells, sequence (Q14247 whole entry, the tested form may be a part): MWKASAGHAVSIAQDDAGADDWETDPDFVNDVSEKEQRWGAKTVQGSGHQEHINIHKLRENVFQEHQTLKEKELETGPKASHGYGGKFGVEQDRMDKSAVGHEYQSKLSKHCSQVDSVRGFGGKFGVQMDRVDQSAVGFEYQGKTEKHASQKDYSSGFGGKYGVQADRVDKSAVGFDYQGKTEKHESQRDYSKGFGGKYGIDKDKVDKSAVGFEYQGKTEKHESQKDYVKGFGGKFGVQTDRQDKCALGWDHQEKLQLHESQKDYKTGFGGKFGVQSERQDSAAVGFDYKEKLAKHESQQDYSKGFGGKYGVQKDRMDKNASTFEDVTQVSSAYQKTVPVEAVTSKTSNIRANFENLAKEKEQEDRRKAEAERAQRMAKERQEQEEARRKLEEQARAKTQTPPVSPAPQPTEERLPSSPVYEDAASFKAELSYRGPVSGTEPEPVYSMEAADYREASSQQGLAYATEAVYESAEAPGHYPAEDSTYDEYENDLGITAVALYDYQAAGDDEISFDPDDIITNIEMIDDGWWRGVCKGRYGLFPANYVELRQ
# full-length MBP-HS1BP3 (from UniProt Q53T59) PRR3.2 mut (prolines of PRR3.2 replaced with alanine), sequence (Q53T59 whole entry, change not shown): as the sequence (Q53T59 whole entry, change not shown) above
# full-length MBP-HS1BP3 (from UniProt Q53T59) PRR3.1+3.2 mut (prolines of PRR3.1 and PRR3.2 replaced with alanine), sequence (Q53T59 whole entry, change not shown): as above
# full-length MBP-HS1BP3 (from UniProt Q53T59) PRR3.1 mut (prolines of PRR3.1 replaced with alanine), sequence (Q53T59 whole entry, change not shown): as above
response [1],ratio to parent [2],ratio to parent [3],Substance
0.3,0.82,–,EGFP-HS1BP3 WT (from UniProt Q53T59) PRR3.1 mut (prolines of PRR3.1 replaced with alanine)
–,–,0.51,full-length MBP-HS1BP3 (from UniProt Q53T59) PRR3.1+3.2 mut (prolines of PRR3.1 and PRR3.2 replaced with alanine)
–,–,0.07,full-length MBP-HS1BP3 (from UniProt Q53T59) PRR3.1 mut (prolines of PRR3.1 replaced with alanine)
–,–,0.31,full-length MBP-HS1BP3 (from UniProt Q53T59) PRR3.2 mut (prolines of PRR3.2 replaced with alanine)
